Target: mouse IgM (mouse)

GSDMD level (Western blot) in primary mouse AT2 treated for 16 h with iKP + r pIgR (0.5 ug/mL) + IgM (0.5 ug/mL), compared with non-treated cells: 326% | GSDMD-NT level (Western blot) in primary mouse AT2 treated for 16 h with iKP + r pIgR (0.5 ug/mL) + IgM (0.5 ug/mL), compared with non-treated cells: 13 fold
Substance: recombinant mouse polymeric immunoglobulin receptor (from UniProt O70570 19-771)
